Data on two molecules can be found in PMC9935832, “Calcium-dependent protein kinase CDPK16 phosphorylates serine-856 of glutamate receptor-like GLR3.6 protein leading to salt-responsive root growth in Arabidopsis^#” (Frontiers in Plant Science, 2023).

This test deals with T1, 6xHis-14-3-3ω (Arabidopsis, UniProt Q01525 1-259).
T1 construct: End of the His tag read from the printed name 6xHis-14-3-3ω; Vector map in Appendix 1B; construct as in Chen et al. (2018); also called recombinant 6xHis-14-3-3ω; source: E. coli BL21, purified (Ni-NTA agarose); not shown: 6xHis, N-terminal, kept
T1 sequence (looked up): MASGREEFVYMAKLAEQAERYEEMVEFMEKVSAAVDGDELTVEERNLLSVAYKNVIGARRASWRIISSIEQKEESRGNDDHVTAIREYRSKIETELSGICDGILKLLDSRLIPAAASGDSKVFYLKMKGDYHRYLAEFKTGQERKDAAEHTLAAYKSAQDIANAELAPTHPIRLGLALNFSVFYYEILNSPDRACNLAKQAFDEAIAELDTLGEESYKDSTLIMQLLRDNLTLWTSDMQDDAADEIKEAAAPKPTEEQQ
In words: pull-down; 6xHis-14-3-3ω and GST-fused GLR3.6 peptides (50 μg each) mixed with Ni-NTA agarose, 4°C, 2 h; western blot with α-His and α-GST. The settings on record: both partners purified. (Immunoblotting shows a protein as a band on a membrane.)

B1: GST-GLR3.6 (GST-fused peptide fragment of GLR3.6, amino acids 854-865) (peptide)
chain: EGSIRRRSSPSA
notes: cloned by AscI and NotI into the GST-NRV vector; End of GST read from the printed name GST-GLR3.6; The vector-only control gives GST-RFP-Strep tag II, so the peptide fusion probably carries RFP and Strep tag II too; vector map in Appendix 1A; design as in Curran et al. (2011); also called GLR3.6 peptide fragment; source: E. coli BL21, purified (glutathione resin); not shown: GST, N-terminal, kept
For the molecule B1, the binding result is recorded as “binds”.

B2: GST-GLR3.6-S856A (GST-fused peptide fragment) (peptide, UniProt Q84W41 854-865, looked up)
chain: EGAIRRRSSPSA
notes: End of GST read from the printed name; also called GLR3.6-S856A single mutant; source: E. coli BL21, purified (glutathione resin); not shown: GST, N-terminal, kept
On to B2, for which the binding result is “binds”.
